Columns and labels:
[1] = target: T1, CHIP G33S, recombinant, C-terminal His tag, Q9UNE7-1; experiment: mass photometry; details: chain shown with the change, self-association, fraction weighted by number of monomeric subunits, n = 3, read off a plot
T1 chain: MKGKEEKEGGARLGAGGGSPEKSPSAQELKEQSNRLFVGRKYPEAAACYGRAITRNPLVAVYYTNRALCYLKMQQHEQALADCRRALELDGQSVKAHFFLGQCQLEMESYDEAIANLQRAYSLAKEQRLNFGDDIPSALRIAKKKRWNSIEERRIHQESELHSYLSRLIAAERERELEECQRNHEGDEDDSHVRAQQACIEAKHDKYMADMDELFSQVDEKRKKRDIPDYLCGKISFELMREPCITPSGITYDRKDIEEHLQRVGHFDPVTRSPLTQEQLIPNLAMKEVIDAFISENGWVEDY

[2] = target: T2, CHIP-myc wild type (pcDNA3-CHIP-myc) (human), Q9UNE7; experiment: native gel or EMSA; Blue native PAGE and immunoblot of lysates (Native PAGE sample buffer, 1% digitonin) of transfected COS-7 cells kept at 37 °C or heat-shocked at 42 °C for 2 h; self-association; details: remark: other sources report otherwise
T2 chain: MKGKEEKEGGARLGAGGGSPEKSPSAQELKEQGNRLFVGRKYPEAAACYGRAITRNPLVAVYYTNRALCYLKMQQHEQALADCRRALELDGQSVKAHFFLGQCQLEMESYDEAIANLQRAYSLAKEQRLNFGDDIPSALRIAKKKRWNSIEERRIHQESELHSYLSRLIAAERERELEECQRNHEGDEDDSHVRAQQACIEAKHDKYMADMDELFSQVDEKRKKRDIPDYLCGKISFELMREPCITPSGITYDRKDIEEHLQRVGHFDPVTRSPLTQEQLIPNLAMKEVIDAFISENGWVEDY

B1: CHIP wild type, recombinant, C-terminal His tag (pET30-CHIP-His), Q9UNE7-1 G33S (protein)
chain: MKGKEEKEGGARLGAGGGSPEKSPSAQELKEQSNRLFVGRKYPEAAACYGRAITRNPLVAVYYTNRALCYLKMQQHEQALADCRRALELDGQSVKAHFFLGQCQLEMESYDEAIANLQRAYSLAKEQRLNFGDDIPSALRIAKKKRWNSIEERRIHQESELHSYLSRLIAAERERELEECQRNHEGDEDDSHVRAQQACIEAKHDKYMADMDELFSQVDEKRKKRDIPDYLCGKISFELMREPCITPSGITYDRKDIEEHLQRVGHFDPVTRSPLTQEQLIPNLAMKEVIDAFISENGWVEDY
Question: For B1, which other: fraction of total CHIP in octamer (8n) ([1]; parent: est. 0.12) is on record?
Answer: 0.13

Question: And the other: fraction of total CHIP in hexamer (6n) ([1]; parent: est. 0.23)?
Answer: 0.2

Question: And the other: fraction of total CHIP in dimer (2n) ([1]; parent: est. 0.32)?
Answer: 0.38

Question: What about the other: fraction of total CHIP in tetramer (4n) ([1]; parent: est. 0.33) of the same binder?
Answer: 0.3

B2: CHIP-myc wild type (pcDNA3-CHIP-myc), Q9UNE7-1 1-303 (enzyme)
chain: MKGKEEKEGGARLGAGGGSPEKSPSAQELKEQGNRLFVGRKYPEAAACYGRAITRNPLVAVYYTNRALCYLKMQQHEQALADCRRALELDGQSVKAHFFLGQCQLEMESYDEAIANLQRAYSLAKEQRLNFGDDIPSALRIAKKKRWNSIEERRIHQESELHSYLSRLIAAERERELEECQRNHEGDEDDSHVRAQQACIEAKHDKYMADMDELFSQVDEKRKKRDIPDYLCGKISFELMREPCITPSGITYDRKDIEEHLQRVGHFDPVTRSPLTQEQLIPNLAMKEVIDAFISENGWVEDY
Question: With B2 as the binder, how does the stoichiometry N [2] read?
Answer: 2

From PMC13570301
